Data taken from EP4201483A1, “LPL1 DERIVED IMMUNE ENHANCING PEPTIDES” (priority 2021, dated 2023).

Key:
HaCaT cells [1] = experiment: S. aureus USA300 invasion / internalization by HaCaT keratinocytes; format: cell-based, human; parameters: key: ⇑: increased invasion and F-actin level; ⇓: decreased invasion and F-actin level; conditions: Triggering invasion of USA300 by keratinocytes (HaCaT)
Method: (§1) To identify Lpli motifs that interact with the target protein Hsp90α the inventors synthesized peptides of various length covering the whole Lpli protein. All the peptides (> 40) were tested for their ability a) to interact with Hsp90α, and b) to trigger S. aureus internalization by keratinocyte-like HaCaT cells. Table 1: Selected Lpl1 derived peptides with their effect on USA300 invasion in HaCaT keratinocytes, interaction with Hsp90α and F-actin levels in HaCaT cells
The inventors compared the effect on host internalization of L13 and L15 with that of geldanamycin. Geldanamycin is a well-known cell permeable anti-neoplastic drug that competes with ATP for binding to Hsp90, thus inhibiting Hsp90 activity (Gorska et al., 2012). This in turn leads to inactivation, destabilization, and eventual degradation of Hsp90 client proteins, The geldanamycin analog 17AAG decreased F-actin formation upon Hsp90 inhibition (Taiyab & Rao Ch, 2011).

HaCaT cells [2] = experiment: F-actin levels in HaCaT cells; format: cell-based, human; parameters: key: ⇑: increased invasion and F-actin level; ⇓: decreased invasion and F-actin level
Method: as §1

B1: TAKGHYFVTTFYRNGKLPDEKNYKIEMKNNKIILLDEVKDDKLKQKIENFKFFGQYANL KELRK (peptide, listed as Staphylococcus aureus)
chain: TAKGHYFVTTFYRNGKLPDEKNYKIEMKNNKIILLDEVKDDKLKQKIENFKFFGQYANLKELRK
notes: 64 aa domain of S.aureus Lpli protein
- Invasion (HaCaT cells [1]): ⇑
- F-actin levels (HaCaT cells [2]): ⇑

B2: LNC2: Lpl1 derived peptide, 64 aa, sequence shown as image only (peptide)
peptide: DEIVKELRSRYNISTEKSPILKMHIDGDLKGSSVGYRKLEIDFSKRENSKLSVIEFLSYKPAKK
- Invasion (HaCaT cells [1]): ⇑
- F-actin levels (HaCaT cells [2]): ⇑
